Reference: patent US5985273A, “Biological control of insects” (priority 1994, dated 1999)

Experiments:
[1] = test system: O. surinamensis larvae; test: Weight reduction of Oryzaephylus surinamensis larvae in treated flour; assay type: in vivo
Method: Insects were cultured in cleaned, ground and sieved wholemeal flour made from organic wheat. Inhibitors from bottles of pre-weighed material were dry-mixed with the flour and residual inhibitor rinsed from bottles with a small volume of water. Rinse water was added to the flour and the mixture re-ground. The impregnated flour was transferred to a 20 mL vial and mixed thoroughly by shaking and inverting.
Adults of T. castaneum were allowed to oviposit on flour, eggs were sifted from the flour and transferred one by one with a single hair to microwell tubes containing a small amount of flour. Each level of treatment was performed in triplicated using 32 wells/replicate. Assays were performed in triplicated. Cultures were incubated at 30° C. and 55% R H.
The bioassay for this insect was outlined for T. castaneum, except incubations were conducted at 32.5° C. and 70% R H. After 8 days the insects were sieved from the flour and weighed.

[2] = test system: Teleogryllus commodus; test: Mortality of black field cricket nymphs on treated cabbage leaf disks; assay type: in vivo; details: after 7 days
Method: (i) Stock solutions of inhibitors and control solutions were prepared as aqueous solutions or suspensions as outlined in Table 6.1.
(ii) Mortality was assessed by commencing the study with 1st instar nymphs.
(iii) Cabbage leaf disks (5×8 mm diameter disks/treatment) were smeared with 100 μl of inhibitor or control stock solutions and allowed to dry. Disks were placed singly in 40 mm petri dishes, together with a moist cotton wool pas as water supply and a piece of fluted plastic for shelter.
(iv) Ten nymphs were placed on each disc and the dishes incubated at 25° C.
(v) Mortality was assessed daily and any dead individuals removed.

[3] = test system: Lucilia cuprina larvae; test: Growth and survival of first instar sheep blowfly larvae on culture medium with inhibitor; assay type: in vivo; details: for Effect on larval growth, summary in words: Example 1, Table 1.2; for % Growth Inhibition / Average Larval Weight: Table 2.2; for Average Larval Weight: control 10.26
[4] = test system: Tribolium castaneum; test: Growth and survival of Tribolium castaneum in treated flour; assay type: in vivo; details: Day 6; all dose levels
Method: Insects were cultured in cleaned, ground and sieved wholemeal flour made from organic wheat. Inhibitors from bottles of pre-weighed material were dry-mixed with the flour and residual inhibitor rinsed from bottles with a small volume of water. Rinse water was added to the flour and the mixture re-ground. The impregnated flour was transferred to a 20 mL vial and mixed thoroughly by shaking and inverting. Adults of T. castaneum were allowed to oviposit on flour, eggs were sifted from the flour and transferred one by one with a single hair to microwell tubes containing a small amount of flour. Each level of treatment was performed in triplicated using 32 wells/replicate. Assays were performed in triplicated. Cultures were incubated at 30° C. and 55% R H. After 6 days each replicate of 32 wells was combined, the larvae counted and the numbers compared with numbers in the control (no inhibitor) treatment. Larvae were classified as "small" if appreciably smaller than reference larvae, or abnormal if unusual behaviour or formation were observed (eg. twisting or twisted larvae). Test inhibitors and dose rates were the same as those used in Example 4.

[5] = test system: Southern corn rootworm (SCR) neonatal larvae; details: 20 mg/ml of diet; laboratory assay; cited from earlier work
[6] = test system: European corn borer (ECB) neonatal larvae; details: 20 mg/ml of diet; laboratory assay; cited from earlier work
[7] = test system: Heliothis punctigens larvae; test: Growth and survival of cotton budworm larvae fed an artificial diet; assay type: in vivo; details: 10 days; for % Alive: control 70.0
Method: 1. The Haricot beans were cooked in a microwave for 40 minutes. 2. Agar was added to the hot water and stirred on a hot plate until almost boiling. 3. The haricot beans, agar mix, yeast and wheat germ was blended in an electric mixer for 3 minutes. 4. When the temperature has dropped to 60°C., the acids were added and mixed with the media. […] Inhibitor solutions or an equal volume of water were placed into sterilized glass tubes at designated concentrations. The artificial media was added to each tube (1.5 ml) using a sterile 10 ml syringe. First instar Heliothis punctigens larvae (1 larvae per tube) were added to the glass tubes and the tubes were capped. The tubes were incubated for 10 days at 25° C. The larvae were killed by placing the glass tubes at -70° C. for 24 hours, and then individually weighed. Percentage inhibition was calculated by comparison to control larvae.

[8] = test system: Ctenocephalides felis; test: Development of cat flea eggs in dried blood diets; assay type: in vivo; details: Day 16
Method: Blood was collected from the jugular vein of a five year old merino sheep that had not been treated with an ectoparasitic agent for 18 months. The blood was collected into a 100 ml plastic bottle containing 0.8 ml of heparin and was maintained at 4° C. Inhibitors were pre-weighed into sterile 5 ml plastic vials and 4.5 ml of blood added. The samples were mixed, placed at -70° C. for 24 hours, then freeze-dried. The freeze-dried samples were sieved through a stainless steel 63 micron sieve, and placed into sterile 5 ml plastic vials (0.15 g/per tube). Four flea eggs were placed into each vial, and a sheet of tissue paper fastened by an elastic band was fitted to the top of each vial. The vials were incubated at 25° C. and 70-80% R H for 6 days. Vermiculite was then added to each vial to provide a supporting medium for the fleas to pupate and the tubes incubated at 25° C. and 70-80% R H, for a further 10 days. Ten control vials and three vials of each treatment were tested.
At the conclusion of the incubation period the vials were placed at -20° C. for 24 hours to kill the fleas. The number of eggs hatched and the life-cycle state was recorded.

[9] = test system: L. cuprina eggs; test: Egg hatch of L. cuprina on liver in vitro; assay type: in vivo, Lucilia cuprina; details: 0.17 mM; 24 hours at 35° C.; control 71
Method: L. cuprina eggs were placed on pieces of liver (0.9 g) which were then placed in individual wells of a 24-well tissue culture plate. Phosphate buffered saline (PBS, 0.1 ml) containing inhibitors at set concentrations were added to each well with 30 freshly laid and sterilised eggs of L. cuprina. The culture plate was then maintained in a sterile environment at 35° C. for 24 hours, after which time the percentage hatch was assessed.

[10] = test system: Bovicola ovis (Hartley strain); test: Survival of sheep lice on inhibitor treated wool; assay type: in vivo; details: of 10 lice, 24 Hours at 35° C.
[11] = test system: Colorado potato beetle larvae; details: fed on potato leaves; cited from earlier work

## c1cnc2c(c1)ccc1cccnc12 [1,10-phenanthroline]
[1]; 192 h, 5 mM, 8 days, relative to untreated larvae, read-out: Percentage Growth Inhibition
  inhibition at 5000 µM: 100%
[1]; 192 h, 10 mM, 8 days, relative to untreated larvae, read-out: Percentage Growth Inhibition
  inhibition at 10000 µM: 63%
[1]; 192 h, 20 mM, 8 days, relative to untreated larvae, read-out: Percentage Growth Inhibition
  inhibition at 20000 µM: 95%
[1]; text summary of Table 9.1
  Growth inhibition, summary in words: highly effective
[2]; 5-20 mM
  Mortality (class): Medium (medium 21-40%)
[3]
  Effect on larval growth, summary in words: effective growth inhibitors
[3]; first instar larvae, tested at 1, 2.5, 5 mM
  Larval survival: All larvae died
[4]
  Larval size classification: normal

## aprotinin
[5]
  Neonatal larvae killed: 60%
[6]
  Neonatal larvae killed: 100%

## CCCCC[C@H](CC(=O)NO)C(=O)N[C@H](C(=O)N1CCC[C@H]1CO)C(C)C [Actinonin]
[2]; 5 mM
  Mortality (class): None (none/low, 10-20% mortality)
[7]; 2.5 mM
  % Alive: 33.3%
[7]; 5.0 mM
  % Alive: 0.00%
[7]; Heliothis, 240 h, 2.5 mM, read-out: % Growth Inhibition
  inhibition at 2500 µM: 97.5%
[7]; Heliothis, 240 h, 5.0 mM, read-out: % Growth Inhibition
  inhibition at 5000 µM: 100%
[3]
  Effect on larval growth, summary in words: effective growth inhibitors
[3]; Lucilia cuprina, first instar larvae, 2.5 mM
  inhibition at 2500 µM: 83%
[3]; Lucilia cuprina, first instar larvae, 10 mM
  inhibition at 10000 µM: 95%
[8]; 1.40 mg in 4.5 ml of blood
  Percentage of Fleas Progressing Through to Pupation: 0%
[8]; 2.80 mg in 4.5 ml of blood
  Percentage of Fleas Progressing Through to Pupation: 16.8%
[4]
  Larval size classification: small

B1: Soybean Trypsin Inhibitor (protein, UniProt P01070 25-205, looked up)
Trypsin inhibitor A: DFVLDNEGNPLENGGTYYILSDITAFGGIRAAPTGNERCPLTVVQSRNELDKGIGTIISSPYRIRFIAEGHPLSLKFDSFAVIMLCVGIPTEWSVVEDLPEGPAVKIGENKDAMDGWFRLERVSDDEFNNYKLVFCPQQAEDDKCGDIGISIDHDDGTRRLVVSKNKPLVVQFQKLDKESL
[1]; 0.17 mM, 8 days, relative to untreated larvae
  Percentage Growth Inhibition: 12%
[1]; 0.34 mM, 8 days, relative to untreated larvae
  Percentage Growth Inhibition: 30%
[1]; 0.68 mM, 8 days, relative to untreated larvae
  Percentage Growth Inhibition: 46%
[2]; 0.17-0.68 mM
  Mortality (class): None (none/low, 10-20% mortality)
[9]
  % Hatch: 17%
[10]; Adult, 0.17 mM
  Number of Living Lice: 4
[10]; Adult, 0.34 mM
  Number of Living Lice: 0
[10]; Adult, 0.68 mM
  Number of Living Lice: 0
[10]; instar 1, 0.17 mM
  Number of Living Lice: 1
[10]; instar 1, 0.34 mM
  Number of Living Lice: 1
[10]; instar 1, 0.68 mM
  Number of Living Lice: 0
[10]; instar 2, 0.17 mM
  Number of Living Lice: 2
[10]; instar 2, 0.34 mM
  Number of Living Lice: 0
[10]; instar 2, 0.68 mM
  Number of Living Lice: 0
[10]; instar 3, 0.17 mM
  Number of Living Lice: 2
[10]; instar 3, 0.34 mM
  Number of Living Lice: 4
[10]; instar 3, 0.68 mM
  Number of Living Lice: 0
[3]; 0.0425 mM
  % Growth Inhibition: -22.5%
  Average Larval Weight: 12.57 10^-4 g
[3]; 0.085 mM
  % Growth Inhibition: 28.5%
  Average Larval Weight: 7.34 10^-4 g
[3]; 0.170 mM
  % Growth Inhibition: 45.1%
  Average Larval Weight: 5.63 10^-4 g
[3]; 0.340 mM
  % Growth Inhibition: 69.3%
  Average Larval Weight: 3.15 10^-4 g
[3]; 0.680 mM
  % Growth Inhibition: 70.6%
  Average Larval Weight: 3.02 10^-4 g
[3]; first instar larvae, 0.17 mM
  Growth Inhibition: 76%
[3]; first instar larvae, 0.40 mM
  Growth Inhibition: 64%
[11]
  Growth retardation: ineffective
[8]; 5.0 mg in 4.5 ml of blood
  Percentage of Fleas Progressing Through to Pupation: 0%
[8]; 10.0 mg in 4.5 ml of blood
  Percentage of Fleas Progressing Through to Pupation: 0%
